Values of other authors as cited in patent publication US20060222641A1, “Method and composition for preventing or reducing edema, deep vein thrombosis and/or pulmonary embolism” (priority 2003, published 2006).

Tested on: fibrinolytic activity in the plasma
Settings: oral administration

B1: nattokinase: serine proteinase of approximately 275 amino acids, approximately 27.7 kDa, fibrinolytic enzyme from natto (Bacillus subtilis) (protein)
chain: AQSVPYGISQIKAPALHSQGYTGSNVKVAVIDSGIDSSHPDLNVRGGASFVPSETNPYQDGSSHGTHVAGTIAALNNSIGVLGVAPSASYAVKVLDSTGSGQYSWIINGIEWAISNNMGVINMSLGGPSGSTALKTVVDKAVSSGIVVAAAAGNEGSSGSSSTVGYPAKYPSTIAVGAVNSSNQRASFSSAGSELDVMAPGVSIQSTLPGGTYGAYNGTSMATPHVAGAAALILSKHPTWTNAQVRDRLESTATYLGNSFYYGKGLINVQAAAQ
modifications: Bacillus Subtilis
  Fibrinolytic activity in the plasma: significant enhancement
